Laboratory results published in article PMC4570534.

Biological target: WT‐EsxB (Bacillus anthracis)
Assay: SEC

Work on WT‐EsxB (natural protein) yielded a stoichiometry N of 4.
